Reference: patent publication US20240009241A1 (published 2024)

T1: EGFR L858R peptide on HLA-A*33:03 (human)
T1 peptide: HVKITDFGR

T2: EGFR L858R peptide on HLA-A*33:01 (human)
T2 peptide: HVKITDFGR

B1: EGFRA33 TCRA33-37-3 (TCR, V domains shown)
Valpha: AQKITQTQPGMFVQEKEAVTLDCTYDTSDQSYGLFWYKQPSSGEMIFLIYQGSYDEQNATEGRYSLNFQKARKSANLVISASQLGDSAMYFCAMREVFGNEKLTFGTGTRLTIIP
Vbeta: EEVAQTPKHLVRGEGQKAKLYCAPIKGHSYVFWYQQVLKNEFKFLISFQNENVFDETGMPKGRFSAKCLPNSPCSLEIQATKLEDSAVYFCASSHRSWKGGDTQPQHFGDGTRLSIL
B2: EGFRA33 TCRA33-37-4 (TCR, V domains shown)
Valpha: AQKITQTQPGMFVQEKEAVTLDCTYDTSDPSYGLFWYKQPSSGEMIFLIYQGSYDQQNATEGRYSLNFQKARKSANLVISASQLGDSAMYFCAMRSGHLSNFGNEKLTFGTGTRLTIIP
Vbeta: B1 Vbeta
B3: EGFRA33 TCRA33-32H (TCR, V domains shown)
Valpha: QKITQTQPGMFVQEKEAVTLDCTYDTSDQSYGLFWYKQPSSGEMIFLIYQGSYDEQNATEGRYSLNFQKARKSANLVISASQLGDSAMYFCAMREVFGNEKLTFGTGTRLTIIP
Vbeta: EEVAQTPKHLVRGEGQKAKLYCAPIKGHSYVFWYQQVLKNEFKFLISFQNENVFDETGMPKERFSAKCLPNSPCSLEIQATKLEDSAVYFCASSPPPSNTYNEQFFGPGTRLTVL
B4: EGFRA33 TCR33-32L (TCR, V domains shown)
Valpha: not shown
Vbeta: GVIQSPRHEVTEMGQEVTLRCKPISGHNSLFWYRQTMMRGLELLIYFNNNVPIDDSGMPEDRFSAKMPNASFSTLKIQPSEPRDSAVYFCASRAGTGEVNEQFFGPGTRLTVL

What was measured:
[1] = target: T1, EGFR L858R peptide on HLA-A*33:03; test: multimer staining
[2] = target: T2, EGFR L858R peptide on HLA-A*33:01; test: killing

Row | Binder | binding result [1] | binding result [2]
1 | B1 | recognises | –
2 | B2 | recognises | –
3 | B3 | recognises | recognises
4 | B4 | recognises | –
